Assay results reported in patent US5723579A, “Fibrinogen binding peptides” (Bayer Corporation, priority 1996, dated 1998).
One block for each substance: values may come before it. No end group written: not given here.

Legend:
fibrinogen [1] = biological target: T1, fibrinogen (Homo sapiens, UniProt P02671+P02675+P02679); assay: Confirmatory binding assay in column chromatographic format: fibrinogen applied to peptide resins, NaCl wash and acid eluate quantified by A280; settings: for 2% Acetic Acid Eluate, A280: peptide synthesized on A-Totda-Toyopearl, Table 2; for 1 M NaCl Eluate, integration of the absorbance at 280 nm / 2% Acetic Acid Eluate, integration of the absorbance at 280 nm: truncations on A-Totda-Toyopearl, Table 6
T1 construct: purchased Sigma Chemical Co. (St. Louis, Mo.) and Chromogenix AB (Molndal, Sweden)
T1 sequence (P02671 20-644 isoform P02671-2 limits assumed): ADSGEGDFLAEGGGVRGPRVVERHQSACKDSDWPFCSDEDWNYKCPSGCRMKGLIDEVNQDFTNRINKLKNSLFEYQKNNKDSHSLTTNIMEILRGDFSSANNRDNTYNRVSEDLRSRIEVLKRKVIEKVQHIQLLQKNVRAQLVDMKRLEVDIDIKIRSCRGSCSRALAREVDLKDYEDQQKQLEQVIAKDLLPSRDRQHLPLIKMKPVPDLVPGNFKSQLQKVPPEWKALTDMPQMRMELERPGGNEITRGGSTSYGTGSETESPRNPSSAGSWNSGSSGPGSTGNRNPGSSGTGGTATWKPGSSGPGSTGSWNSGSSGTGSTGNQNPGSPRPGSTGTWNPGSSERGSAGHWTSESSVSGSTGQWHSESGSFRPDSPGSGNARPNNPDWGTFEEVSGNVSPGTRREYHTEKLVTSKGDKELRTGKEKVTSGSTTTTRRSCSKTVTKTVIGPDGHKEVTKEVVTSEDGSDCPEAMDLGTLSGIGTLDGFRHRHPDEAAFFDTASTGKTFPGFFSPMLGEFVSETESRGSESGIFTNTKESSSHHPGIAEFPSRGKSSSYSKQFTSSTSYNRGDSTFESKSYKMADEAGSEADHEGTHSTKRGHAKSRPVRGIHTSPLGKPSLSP
T1 sequence (P02675 31-491): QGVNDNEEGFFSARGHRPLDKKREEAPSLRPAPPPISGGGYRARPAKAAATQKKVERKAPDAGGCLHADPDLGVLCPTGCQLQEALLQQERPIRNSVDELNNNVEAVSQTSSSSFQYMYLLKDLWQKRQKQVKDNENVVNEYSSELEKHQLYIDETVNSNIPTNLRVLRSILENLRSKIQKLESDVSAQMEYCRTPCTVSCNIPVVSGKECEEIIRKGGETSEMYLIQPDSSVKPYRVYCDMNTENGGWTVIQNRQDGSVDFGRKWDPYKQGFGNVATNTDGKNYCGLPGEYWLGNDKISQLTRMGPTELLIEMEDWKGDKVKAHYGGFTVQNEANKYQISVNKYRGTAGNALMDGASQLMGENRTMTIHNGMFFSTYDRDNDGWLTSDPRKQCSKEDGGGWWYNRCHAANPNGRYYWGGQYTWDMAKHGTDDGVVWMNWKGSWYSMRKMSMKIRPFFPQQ
T1 sequence (P02679 27-453): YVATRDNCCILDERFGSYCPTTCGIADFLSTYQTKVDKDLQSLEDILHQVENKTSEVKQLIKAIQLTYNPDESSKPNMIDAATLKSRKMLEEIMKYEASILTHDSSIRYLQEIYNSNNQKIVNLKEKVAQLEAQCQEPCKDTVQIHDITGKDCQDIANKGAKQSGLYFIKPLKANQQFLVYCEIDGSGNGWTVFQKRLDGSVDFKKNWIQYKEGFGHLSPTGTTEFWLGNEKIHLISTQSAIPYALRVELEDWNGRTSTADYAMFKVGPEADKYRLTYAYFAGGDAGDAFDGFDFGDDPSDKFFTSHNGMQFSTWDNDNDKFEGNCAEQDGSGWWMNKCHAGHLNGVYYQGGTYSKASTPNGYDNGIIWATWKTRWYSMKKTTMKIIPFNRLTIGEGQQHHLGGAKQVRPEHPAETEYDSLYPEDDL
Procedure: Confirmatory binding assays were performed in a column chromatographic format on a microbore HPLC using individual peptide sequences synthesized directly onto the Toyopearl 650M Chelate resin which had been modified with Totda followed by an alanine residue (A-Totda-Toyopearl), at a final substitution density of 0.2 mmole/g resin. […] The endpoint was a dose-dependent increase in the acid eluate in the fibrinogen contactings, and quantification was by integration of the absorbance at 280 nm (Table 2).
Peptides PLLVPL and FLLVPL, with and without an N-acetylated amino terminus, were synthesized directly onto Ala-Totda-Toyopearl at a density of approximately 0.2 mmole/g resin. The ability of these resins to bind fibrinogen was determined as above. An unblocked (free) amino terminus was required for binding fibrinogen to PLLVPL-A-Totda-Toyopearl (Table 5) (SEQ ID NO:2). Similar results were obtained in a separate experiment by using FLLVPL-A-Totda-Toyopearl (Table 5) (SEQ ID NO:1).
Truncations from the carboxyl- and amino- termini of PLLVPL and FLLVPL (SEQ ID NOS 2 and 1, respectively) synthesized directly on A-Totda-Toyopearl resin in order to identify the minimum sequence necessary for binding.

fibrinogen [2] = biological target: T1, fibrinogen; assay: Isothermal titration calorimetry of peptide binding to purified fibrinogen; settings: solution phase binding, soluble peptide; 30° C., 30 mM phosphate buffer, pH 7.0
Procedure: Isothermal titration colorimetry was performed using either purified, soluble peptides (5 mM) or peptides synthesized directly on A-Totda-Togopearl (1.4mM) and with purified fibrinogen (50 μM) by a modification of the technique of Tyler-Cross et at. (1993). All measurements were performed at 30° C. in 30 mM phosphate buffer, pH 7.0 with an Omega titration colorimeter (Microcal, Inc., Northampton, Mass.).
Solution phase binding isotherms were performed on the purified soluble peptides and purified fibrinogen by using isothermal titration calorimetry (Table 3). […] A change from P to F at the amino terminus lowered the dissociation constant over 150-fold. PLLVPL (SEQ ID NO:2) bound to approximately 3 to 4 sites per fibrinogen molecule. […] Both peptide binding reactions were endothermic as indicated by the positive enthalpy (ΔH), and were thermodynamically favorable (negative ΔG) under the conditions tested. Unusually high entropic terms indicate a conformational change may be driving the association of peptide with fibrinogen.

fibrinogen [3] = biological target: T1, fibrinogen; assay: Characterization of binding interaction: fibrinogen (25 mg) on 5 ml FLLVPL resin column, binding and elution under varied conditions
Procedure: Peptide FLLVPL was synthesized directly on A-Totda-Toyopearl at a density of 0.2 mmole/g resin. A column of dimensions 1.0×6.4 cm (approximately 5 ml column volume) was equilibrated with either 10 mM HEPES or 10 mM sodium acetate, pH 6.8, 1.0 mM EGTA and either 0.1, 0.2 or 1.0M NaCl. Fibrinogen (25 mg; 5.0 ml) was applied to the column in 10 mM sodium acetate, pH 6.8 and 1 mM EGTA containing 0.1M NaCl.
Fibrinogen (25 mg; 5.0 ml) was applied to the column in 10 mM sodium acetate, pH 6.8 and 1 mM EGTA containing 0.1M NaCl.
No elution of fibrinogen (applied to the column in 10 mM sodium acetate, pH 6.8 and 1 mM EGTA containing 0.1M NaCl) was observed by using the hydrophilic compound, polyethylene glycol (10%). Only approximately 8 percent of the applied fibrinogen was eluted by increasing the pH to 10 with 10 mM sodium borate. Further increases in pH with a linear gradient (pH 6.8 to 12.0) released approximately 25 percent of the fibrinogen.
In order to assess further the contribution of hydrophobic interactions to the binding mechanism of FLLVPL (SEQ ID NO.:1) to fibrinogen, fibrinogen (25 mg; 5.0 ml) was applied to the peptide under high salt conditions favorable to hydrophobic bonding and release under low ionic strength. The peptide resin was equilibrated with 10 mM sodium acetate, 1.0M NaCl, and 1.0 mM EGTA, pH 6.8. Five milliliters of a solution of fibrinogen (5 mg/ml) in the same buffer was applied to the column, and washed with two column volumes of the same buffer. The resin was then contacted with 10 column volumes of 10 mM sodium acetate, pH 4.0 followed by 2% acetic acid (4 column volumes). […] Low ionic strength and low pH (4.0) released approximately 78.3 percent of the protein. However, only 5% of the applied protein was eluted in a second experiment when the 10 mM sodium acetate, pH 4.0 solution contained 0.1M NaCl. Acid treatment released the remainder of the recovered protein in both experiments.

Substance: AALVPL: peptide sequence AALVPL synthesized on A-Totda-Toyopearl (not fully specified (C-terminus))
- 2% Acetic Acid Eluate, A280 (fibrinogen [1]; 250 μg fibrinogen applied): 0.02
- 2% Acetic Acid Eluate, A280 (fibrinogen [1]; 500 μg fibrinogen applied): 0.09
- 2% Acetic Acid Eluate, A280 (fibrinogen [1]; 1000 μg fibrinogen applied): 0.12

Substance: ALLVPL: peptide sequence ALLVPL synthesized on A-Totda-Toyopearl (not fully specified (C-terminus))
- 2% Acetic Acid Eluate, A280 (fibrinogen [1]; 250 μg fibrinogen applied): 0.02
- 2% Acetic Acid Eluate, A280 (fibrinogen [1]; 500 μg fibrinogen applied): 0.09
- 2% Acetic Acid Eluate, A280 (fibrinogen [1]; 1000 μg fibrinogen applied): 0.12

Substance: FLLVPL-NH2 [FLLVPL, Phe-Leu-Leu-Val-Pro-Leu]
- Kd (fibrinogen [2]): 4.5 µM
- applied protein eluted (fibrinogen [3]; 10 mM sodium acetate, pH 4.0 containing 0.1M NaCl (second experiment)): 5%
- applied protein (A280) not interacting with the column, recovered in flow through and wash (fibrinogen [3]; applied in 10 mM sodium acetate, 1.0M NaCl, 1.0 mM EGTA, pH 6.8): Approximately 7.2%
- release of the applied protein (fibrinogen [3]; elution with ionic detergent (2% sodium cholate)): 14%
- release of the applied protein (fibrinogen [3]; elution with nonionic detergent (5% Tween-20) in the binding buffer): 40%
- fibrinogen released (fibrinogen [3]; linear pH gradient (pH 6.8 to 12.0)): approximately 25%
- protein released (fibrinogen [3]; low ionic strength, 10 mM sodium acetate, pH 4.0, after high salt application): approximately 78.3%
- applied absorbance (280 nm) that failed to bind the column (fibrinogen [3]; pH 6.8, 1.0 mM EGTA, column equilibrated with 0.1, 0.2 or 1.0M NaCl): 5 to 8%
- release of fibrinogen (fibrinogen [3]; pH gradient from 6.8 to 4.0, release at pH 4.2): approximately 66%
- applied fibrinogen eluted (fibrinogen [3]; pH increased to 10 with 10 mM sodium borate): approximately 8%

Substance: PALVPL: peptide sequence PALVPL synthesized on A-Totda-Toyopearl (not fully specified (C-terminus))
- 2% Acetic Acid Eluate, A280 (fibrinogen [1]; 250 μg fibrinogen applied): 0.01
- 2% Acetic Acid Eluate, A280 (fibrinogen [1]; 500 μg fibrinogen applied): 0.06
- 2% Acetic Acid Eluate, A280 (fibrinogen [1]; 1000 μg fibrinogen applied): 0.13

Second part, the substance after the results:

- Kd (fibrinogen [2]): 688 µM
Substance: PLLVPL-NH2 [PLLVPL, Pro-Leu-Leu-Val-Pro-Leu]

- 2% Acetic Acid Eluate, A280 (fibrinogen [1]; 250 μg fibrinogen applied): 0.72
- 2% Acetic Acid Eluate, A280 (fibrinogen [1]; 500 μg fibrinogen applied): 1.35
- 2% Acetic Acid Eluate, A280 (fibrinogen [1]; 1000 μg fibrinogen applied): 2.78
Substance: Phe-Ala-Leu-Val- Pro-Leu (FALVPL; not fully specified (C-terminus); printed as Phe-Ala-Leu-Val-Pro-Leu)

- 1 M NaCl Eluate, integration of the absorbance at 280 nm (fibrinogen [1]; 250 μg fibrinogen applied): 0.00 ×10^6
- 2% Acetic Acid Eluate, integration of the absorbance at 280 nm (fibrinogen [1]; 250 μg fibrinogen applied): 1.51 ×10^6
- 1 M NaCl Eluate, integration of the absorbance at 280 nm (fibrinogen [1]; 500 μg fibrinogen applied): 0.00 ×10^6
- 2% Acetic Acid Eluate, integration of the absorbance at 280 nm (fibrinogen [1]; 500 μg fibrinogen applied): 1.79 ×10^6
- 1 M NaCl Eluate, integration of the absorbance at 280 nm (fibrinogen [1]; 1000 μg fibrinogen applied): 0.50 ×10^6
- 2% Acetic Acid Eluate, integration of the absorbance at 280 nm (fibrinogen [1]; 1000 μg fibrinogen applied): 4.99 ×10^6
Substance: Phe-Leu-Leu-Val (FLLV; printed: Phe-Leu-Leu-Val) [truncation of FLLVPL on A-Totda-Toyopearl resin]
